Test results: publication PMC11514443 (Structure (London, England : 1993), 2019)

System: A/Udorn/72 (H3N2) influenza virus
Format: cell-based, A/Udorn/72 (H3N2) influenza virus; human HEK293T cells

B1: WT MORC3 (protein, UniProt Q14149 1-939, looked up)
MORC family CW-type zinc …: MAAQPPRGIRLSALCPKFLHTNSTSHTWPFSAVAELIDNAYDPDVNAKQIWIDKTVINDHICLTFTDNGNGMTSDKLHKMLSFGFSDKVTMNGHVPVGLYGNGFKSGSMRLGKDAIVFTKNGESMSVGLLSQTYLEVIKAEHVVVPIVAFNKHRQMINLAESKASLAAILEHSLFSTEQKLLAELDAIIGKKGTRIIIWNLRSYKNATEFDFEKDKYDIRIPEDLDEITGKKGYKKQERMDQIAPESDYSLRAYCSILYLKPRMQIILRGQKVKTQLVSKSLAYIERDVYRPKFLSKTVRITFGFNCRNKDHYGIMMYHRNRLIKAYEKVGCQLRANNMGVGVVGIIECNFLKPTHNKQDFDYTNEYRLTITALGEKLNDYWNEMKVKKNTEYPLNLPVEDIQKRPDQTWVQCDACLKWRKLPDGMDQLPEKWYCSNNPDPQFRNCEVPEEPEDEDLVHPTYEKTYKKTNKEKFRIRQPEMIPRINAELLFRPTALSTPSFSSPKESVPRRHLSEGTNSYATRLLNNHQVPPQSEPESNSLKRRLSTRSSILNAKNRRLSSQFENSVYKGDDDDEDVIILEENSTPKPAVDHDIDMKSEQSHVEQGGVQVEFVGDSEPCGQTGSTSTSSSRCDQGNTAATQTEVPSLVVKKEETVEDEIDVRNDAVILPSCVEAEAKIHETQETTDKSADDAGCQLQELRNQLLLVTEEKENYKRQCHMFTDQIKVLQQRILEMNDKYVKKETCHQSTETDAVFLLESINGKSESPDHMVSQYQQALEEIERLKKQCSALQHVKAECSQCSNNESKSEMDEMAVQLDDVFRQLDKCSIERDQYKSEVELLEMEKSQIRSQCEELKTEVEQLKSTNQQTATDVSTSSNIEESVNHMDGESLKLRSLRVNVGQLLAMIVPDLDLQQVNYDVDVVDEILGQVVEQMSEISST
viral infectivity: slight increase in viral infectivity
